# In patent US20190054137A1 (INDIANA UNIVERSITY RESEARCH AND TECHNOLOGY, published 2019):
# B1: PGA-3 (peptide)
# peptide: Ac-EPAPYQPEG-NH2
# notes: also called Analog 14 (GA-3)
# B2: PGA-4 (peptide)
# peptide: Ac-EPAPESPQV-NH2
# notes: also called Analog 7 (GA-4)
# B3: PGA-1 (peptide)
# peptide: Ac-APKPYQPRG-NH2
# notes: also called Analog 20 (GA-1)
# B4: PGA-5 (peptide)
# peptide: Ac-EPAPEQPDG-NH2
# notes: also called Analog 8 (GA-5)
# B5: PGA-2 (peptide)
# peptide: Ac-EPAPLAPYG-NH2
# notes: also called Analog 3 (GA-2)
# Molecular target: T1, Recombinant human p65 protein (r-p65) with DDK tag (OriGene catalog number TP320780) (human, UniProt Q04206 1-551)
# T1 construct: mature; also called r-p65-DDK; human r-p65; not shown: DDK tag
# T1 sequence (Q04206 whole entry): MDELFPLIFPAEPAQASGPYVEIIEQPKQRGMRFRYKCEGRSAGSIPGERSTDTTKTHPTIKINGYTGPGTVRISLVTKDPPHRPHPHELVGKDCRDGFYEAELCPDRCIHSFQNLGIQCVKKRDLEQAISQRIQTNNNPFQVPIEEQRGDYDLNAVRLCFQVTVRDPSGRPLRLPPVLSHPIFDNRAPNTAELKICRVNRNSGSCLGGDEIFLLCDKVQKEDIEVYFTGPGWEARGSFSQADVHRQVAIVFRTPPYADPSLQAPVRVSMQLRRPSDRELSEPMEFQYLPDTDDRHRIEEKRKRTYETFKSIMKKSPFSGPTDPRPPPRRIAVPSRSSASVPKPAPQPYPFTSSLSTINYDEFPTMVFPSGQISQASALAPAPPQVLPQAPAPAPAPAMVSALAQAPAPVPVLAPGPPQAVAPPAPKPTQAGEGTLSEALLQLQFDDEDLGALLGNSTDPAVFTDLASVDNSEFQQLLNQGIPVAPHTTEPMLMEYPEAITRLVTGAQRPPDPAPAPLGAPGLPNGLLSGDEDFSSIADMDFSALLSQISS
# Assay: plate-bound PGA probed with r-p65-DDK, method of Friguet, Scatchard analysis
row,Binder,Kd
1,B1,3.27 µM
2,B2,3.28 µM
3,B3,4.28 µM
4,B4,3.4 µM
5,B5,2.29 µM
